Reference: PMC13086964, “USP7 deubiquitinase stabilizes FAN1 to support DNA crosslink repair and suppress CAG repeat expansion” (Nature Communications, 2026)

molecular target: USP7 TRAF domain (residues 2-207), biotinylated (UniProt Q93009); assay: fluorescence polarisation; conditions: read at the highest USP7-TRAF concentration, about 190 µM; parent: est. 100; read off a plot
Sequence (Q93009 2-207): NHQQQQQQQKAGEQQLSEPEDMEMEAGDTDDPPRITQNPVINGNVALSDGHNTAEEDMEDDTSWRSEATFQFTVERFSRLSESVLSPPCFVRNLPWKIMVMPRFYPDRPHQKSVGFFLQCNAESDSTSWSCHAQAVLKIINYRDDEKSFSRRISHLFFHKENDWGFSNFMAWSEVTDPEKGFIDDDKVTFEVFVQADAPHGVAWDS

response (% (normalized FP))	Substance
99	FITC-labelled FAN1-derived 8mer peptide, wild-type (181-PQSS-184 region) Q182A
30	FITC-labelled FAN1-derived 8mer peptide, wild-type (181-PQSS-184 region) S184A
100	FITC-labelled FAN1-derived 8mer peptide, wild-type (181-PQSS-184 region) P181A
